In article PMC11391049 (Life Science Alliance, 2024):
Each block holds one binder with its values, some of them ahead of it.

B5: β7-subunit (natural protein, S. cerevisiae, UniProt P30657 34-266, looked up)
chain: TQQPIVTGTSVISMKYDNGVIIAADNLGSYGSLLRFNGVERLIPVGDNTVVGISGDISDMQHIERLLKDLVTENAYDNPLADAEEALEPSYIFEYLATVMYQRRSKMNPLWNAIIVAGVQSNGDQFLRYVNLLGVTYSSPTLATGFGAHMANPLLRKVVDRESDIPKTTVQVAEEAIVNAMRVLYYRDARSSRNFSLAIIDKNTGLTFKKNLQVENMKWDFAKDIKGYGTQKI
notes: 20S proteasome subunit β7, S. cerevisiae, without its 33-residue propeptide (β7pro); the last 10 residues of the C-terminal extension are not resolved there

Tests used:
[1] = biological target: T1, Blm10 (S. cerevisiae, UniProt P43583 1-2143); experiment: cryo-EM structure; native pre1-1CP-Blm10 complex copurified via FLAG-6xHis on β4; 2.4 Å, no symmetry applied; conditions: both partners purified
T1 construct: also called Blm10 chaperone

[2] = biological target: B5; experiment: cryo-EM structure; uncapped, fully matured 20S pre1-1CP isolated via FLAG-6xHis on β4; 2.0 Å with C2 symmetry; conditions: both partners purified
[3] = biological target: T2, β5 precursor (β5-subunit with unprocessed β5-propeptide) (S. cerevisiae, UniProt P30656 1-287); experiment: cryo-EM structure; late-PC (doubly capped with Pba1-Pba2) isolated via FLAG-6xHis on β4 from pre1-1 cells; 2.1 Å with C2 symmetry, 2.3 Å without; sub-populations late-PC1 (2.7 Å) and late-PC2 (2.3 Å); conditions: both partners purified
T2 construct: β5/Pre2, S. cerevisiae, unprocessed precursor with the whole 75-residue propeptide (all but -65, -64 and -13 resolved); numbers count on: the mature subunit (Thr1 = +1, propeptide residues negative); also called Pre2; precursor form of the β5-subunit
T2 sequence (looked up): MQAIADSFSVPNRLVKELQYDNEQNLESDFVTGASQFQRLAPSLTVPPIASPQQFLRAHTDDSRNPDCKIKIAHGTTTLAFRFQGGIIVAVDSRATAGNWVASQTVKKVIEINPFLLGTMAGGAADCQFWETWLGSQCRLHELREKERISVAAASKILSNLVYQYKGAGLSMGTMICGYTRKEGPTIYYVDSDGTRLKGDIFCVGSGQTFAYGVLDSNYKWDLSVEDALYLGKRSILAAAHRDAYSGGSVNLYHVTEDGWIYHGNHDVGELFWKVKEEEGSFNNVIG

[4] = biological target: T3, β4-S142F (pre1-1) with FLAG-6xHis-tag (S. cerevisiae, UniProt P22141 1-198, S142F); experiment: affinity purification with mass spectrometry; tandem affinity purification (FLAG, 6xHis on β4) from pre1-1 cells overexpressing Pba1-Pba2, separation by native PAGE, bands evaluated by MS; conditions: partners not purified
T3 construct: Pre1/β4, S. cerevisiae, mutant version of the pre1-1 strain; also called pre1-1-FH; Pre1/β4 (β4-S142F)
T3 sequence: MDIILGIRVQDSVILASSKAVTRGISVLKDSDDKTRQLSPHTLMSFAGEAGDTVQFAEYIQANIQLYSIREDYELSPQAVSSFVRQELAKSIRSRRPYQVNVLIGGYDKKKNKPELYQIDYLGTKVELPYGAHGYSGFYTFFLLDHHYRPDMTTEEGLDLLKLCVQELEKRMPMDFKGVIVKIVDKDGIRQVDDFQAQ

[5] = biological target: B5; experiment: cryo-EM structure; late-PC (doubly capped with Pba1-Pba2) isolated via FLAG-6xHis on β4 from pre1-1 cells; 2.1 Å with C2 symmetry, 2.3 Å without; sub-populations late-PC1 (2.7 Å) and late-PC2 (2.3 Å); conditions: both partners purified

T1 sequence (P43583 whole entry): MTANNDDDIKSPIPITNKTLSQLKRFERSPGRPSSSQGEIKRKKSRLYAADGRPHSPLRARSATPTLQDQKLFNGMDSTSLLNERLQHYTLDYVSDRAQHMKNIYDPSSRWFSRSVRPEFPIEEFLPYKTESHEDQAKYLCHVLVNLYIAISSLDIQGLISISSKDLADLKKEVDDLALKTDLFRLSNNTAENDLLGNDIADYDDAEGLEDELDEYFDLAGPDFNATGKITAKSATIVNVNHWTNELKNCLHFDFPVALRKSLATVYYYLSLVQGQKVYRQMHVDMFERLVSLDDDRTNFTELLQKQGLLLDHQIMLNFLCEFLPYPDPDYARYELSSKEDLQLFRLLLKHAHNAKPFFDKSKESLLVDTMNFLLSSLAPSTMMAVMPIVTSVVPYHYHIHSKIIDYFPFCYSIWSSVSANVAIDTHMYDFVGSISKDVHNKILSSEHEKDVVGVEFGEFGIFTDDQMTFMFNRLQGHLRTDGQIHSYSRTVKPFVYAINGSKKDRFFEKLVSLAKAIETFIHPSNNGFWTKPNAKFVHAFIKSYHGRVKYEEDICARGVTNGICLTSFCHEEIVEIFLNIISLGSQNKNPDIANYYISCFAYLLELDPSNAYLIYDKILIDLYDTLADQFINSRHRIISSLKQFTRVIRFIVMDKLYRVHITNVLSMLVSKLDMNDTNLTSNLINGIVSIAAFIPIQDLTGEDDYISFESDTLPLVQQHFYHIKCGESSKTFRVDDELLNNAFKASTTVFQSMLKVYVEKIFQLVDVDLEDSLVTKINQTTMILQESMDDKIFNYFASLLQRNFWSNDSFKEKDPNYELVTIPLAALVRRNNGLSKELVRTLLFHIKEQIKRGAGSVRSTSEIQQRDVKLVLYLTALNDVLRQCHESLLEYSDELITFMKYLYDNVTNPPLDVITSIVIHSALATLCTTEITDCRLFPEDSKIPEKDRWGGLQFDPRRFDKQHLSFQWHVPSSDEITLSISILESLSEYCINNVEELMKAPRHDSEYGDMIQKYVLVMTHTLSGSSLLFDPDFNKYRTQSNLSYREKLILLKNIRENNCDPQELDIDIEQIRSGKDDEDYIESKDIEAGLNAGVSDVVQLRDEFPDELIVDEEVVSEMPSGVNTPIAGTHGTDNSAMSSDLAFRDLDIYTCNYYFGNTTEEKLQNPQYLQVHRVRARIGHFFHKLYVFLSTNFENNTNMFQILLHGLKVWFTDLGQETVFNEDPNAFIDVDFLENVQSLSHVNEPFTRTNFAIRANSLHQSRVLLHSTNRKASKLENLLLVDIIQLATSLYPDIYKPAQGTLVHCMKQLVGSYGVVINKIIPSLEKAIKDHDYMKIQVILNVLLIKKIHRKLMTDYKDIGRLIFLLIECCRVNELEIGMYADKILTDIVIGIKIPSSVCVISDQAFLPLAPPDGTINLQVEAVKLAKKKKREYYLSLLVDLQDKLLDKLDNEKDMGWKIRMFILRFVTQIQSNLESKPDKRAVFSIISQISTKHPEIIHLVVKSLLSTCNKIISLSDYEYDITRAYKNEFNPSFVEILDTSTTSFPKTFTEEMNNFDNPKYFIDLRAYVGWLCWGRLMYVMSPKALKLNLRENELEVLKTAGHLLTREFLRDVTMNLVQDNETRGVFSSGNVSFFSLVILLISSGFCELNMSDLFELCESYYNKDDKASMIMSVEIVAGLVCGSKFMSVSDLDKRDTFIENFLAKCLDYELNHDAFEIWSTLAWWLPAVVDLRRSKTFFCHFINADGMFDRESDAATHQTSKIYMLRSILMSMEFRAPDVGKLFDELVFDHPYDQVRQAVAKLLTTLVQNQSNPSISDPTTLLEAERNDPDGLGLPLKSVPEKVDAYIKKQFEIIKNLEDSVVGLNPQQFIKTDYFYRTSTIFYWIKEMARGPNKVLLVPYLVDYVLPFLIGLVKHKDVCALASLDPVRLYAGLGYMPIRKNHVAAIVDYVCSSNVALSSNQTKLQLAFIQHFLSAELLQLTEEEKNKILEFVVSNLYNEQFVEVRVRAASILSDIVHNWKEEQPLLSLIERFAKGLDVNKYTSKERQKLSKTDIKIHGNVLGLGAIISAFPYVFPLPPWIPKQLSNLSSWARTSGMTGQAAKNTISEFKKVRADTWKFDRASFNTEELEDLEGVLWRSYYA

- binding result [1]: binds
B1: α6-subunit (natural protein, S. cerevisiae, UniProt P40302 1-234, looked up)
chain: MFRNNYDGDTVTFSPTGRLFQVEYALEAIKQGSVTVGLRSNTHAVLVALKRNADELSSYQKKIIKCDEHMGLSLAGLAPDARVLSNYLRQQCNYSSLVFNRKLAVERAGHLLCDKAQKNTQSYGGRPYGVGLLIIGYDKSGAHLLEFQPSGNVTELYGTAIGARSQGAKTYLERTLDTFIKIDGNPDELIKAGVEAISQSLRDESLTVDNLSIAIVGKDTPFTIYDGEAVAKYI
notes: 20S proteasome subunit α6, S. cerevisiae

- binding result [2]: binds
B2: β2-subunit, autocatalytically processed (natural protein, S. cerevisiae, UniProt P25043 30-261, looked up)
chain: TTIVGVKFNNGVVIAADTRSTQGPIVADKNCAKLHRISPKIWCAGAGTAADTEAVTQLIGSNIELHSLYTSREPRVVSALQMLKQHLFKYQGHIGAYLIVAGVDPTGSHLFSIHAHGSTDVGYYLSLGSGSLAAMAVLESHWKQDLTKEEAIKLASDAIQAGIWNDLGSGSNVDVCVMEIGKDAEYLRNYLTPNVREEKQKSYKFPRGTTAVLKESIVNICDIQEEQVDITA
notes: β2/Pup1, S. cerevisiae, mature subunit beginning at the active site Thr1 after cleavage of the Gly-1/Thr1 bond (29-residue propeptide removed); numbers count on: the mature subunit; also called Pup1; mature β2

- binding result [4]: binds
- binding result [5]: binds
B7: Ump1 (natural protein, S. cerevisiae, UniProt P38293 1-148, looked up)
chain: MNIVPQDTFKSQVSTDQDKSVLSSAVPSLPDTLRQQEGGAVPLSTQLNDRHPLESTLKNWETTQRQRQMEQYRQIFGIAEPMKRTMEMEIVNRTDFNPLSTNGSIHRDILLNKECSIDWEDVYPGTGLQASTMVGDDVHSKIEKQLGI
notes: residues 126-131 not resolved; two Ump1 molecules are encased in one late-PC, one in each half; also called ScUmp1; Ump1 chaperone

Continued, binder first:

B3: β1-subunit, autocatalytically cleaved (mature, in pre1-1CP) (natural protein, S. cerevisiae, UniProt P38624 20-215, looked up)
chain: TSIMAVTFKDGVILGADSRTTTGAYIANRVTDKLTRVHDKIWCCRSGSAADTQAIADIVQYHLELYTSQYGTPSTETAASVFKELCYENKDNLTAGIIVAGYDDKNKGEVYTIPLGGSVHKLPYAIAGSGSTFIYGYCDKNFRENMSKEETVDFIKHSLSQAIKWDGSSGGVIRMVVLTAAGVERLIFYPDEYEQL
notes: β1/Pre3, S. cerevisiae, mature subunit beginning at Thr1; numbers count on: the mature subunit; also called Pre3
- binding result [2]: binds

B4: β6-subunit (natural protein, S. cerevisiae, UniProt P23724 20-241, looked up)
chain: QFNPYGDNGGTILGIAGEDFAVLAGDTRNITDYSINSRYEPKVFDCGDNIVMSANGFAADGDALVKRFKNSVKWYHFDHNDKKLSINSAARNIQHLLYGKRFFPYYVHTIIAGLDEDGKGAVYSFDPVGSYEREQCRAGGAAASLIMPFLDNQVNFKNQYEPGTNGKVKKPLKYLSVEEVIKLVRDSFTSATERHIQVGDGLEILIVTKDGVRKEFYELKRD
notes: 20S proteasome subunit β6, S. cerevisiae, without its 19-residue propeptide (β6pro)
- binding result [2]: binds

Binder: B5
- binding result [3]: binds

B6: α5-subunit (natural protein, S. cerevisiae, UniProt P32379 1-260, looked up)
chain: MFLTRSEYDRGVSTFSPEGRLFQVEYSLEAIKLGSTAIGIATKEGVVLGVEKRATSPLLESDSIEKIVEIDRHIGCAMSGLTADARSMIEHARTAAVTHNLYYDEDINVESLTQSVCDLALRFGEGASGEERLMSRPFGVALLIAGHDADDGYQLFHAEPSGTFYRYNAKAIGSGSEGAQAELLNEWHSSLTLKEAELLVLKILKQVMEEKLDENNAQLSCITKQDGFKIYDNEKTAELIKELKEKEAAESPEEADVEMS
notes: 20S proteasome subunit α5, S. cerevisiae
- binding result [1]: binds
